The results in this text go back to publication PMC10397247.

Common to all, as to test: two-hybrid library CCmax;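 note: natural log of median RNA to DNA barcode read ratio; higher means stronger binding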
One test deals with T1, 4H3438-AA.
T1 chain: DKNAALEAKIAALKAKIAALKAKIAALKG
As to conditions: mean of both orientations.

For a further test, the target named is T2, 4H2343-AA.
T2 chain: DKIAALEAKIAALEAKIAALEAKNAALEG
As to conditions: mean of both orientations.

The target in another test is T3, 4H1828-AA.
T3 chain: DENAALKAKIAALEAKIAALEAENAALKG

A further test concerns the target T4, 4H347-AA.
T4 chain: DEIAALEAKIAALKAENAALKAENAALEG
As to conditions: mean of both orientations.

A further test has as its target T5, 4H2466-AA.
T5 chain: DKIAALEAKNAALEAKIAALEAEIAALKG
Conditions: mean of both orientations.

Another test concerns the target T6, 4H1930-AA.
T6 chain: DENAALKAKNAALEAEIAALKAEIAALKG
As to conditions: mean of both orientations.

The next test concerns the target T7, 4H_APH.
T7 chain: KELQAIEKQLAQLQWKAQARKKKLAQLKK

The target in a further test is T8, 4H2774-AA.
T8 chain: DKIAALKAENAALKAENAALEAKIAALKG
Conditions: mean of both orientations.

A further test concerns the target T9, 4H2732-AA.
T9 chain: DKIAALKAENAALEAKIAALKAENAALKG
As to conditions: mean of both orientations.

In the next test the target is T10, 4H2931-AA.
T10 chain: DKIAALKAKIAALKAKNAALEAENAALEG
As to conditions: mean of both orientations.

In another test the target is T11, 4H3015-AA.
T11 chain: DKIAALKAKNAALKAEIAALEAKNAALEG
Conditions: mean of both orientations.

A further test concerns the target T12, 4H56-AA.
T12 chain: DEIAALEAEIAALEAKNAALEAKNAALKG
Conditions: mean of both orientations.

Another test has as its target T13, 4H3073-AA.
T13 chain: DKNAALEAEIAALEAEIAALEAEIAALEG
As to conditions: mean of both orientations.

A further test concerns the target T14, 4H2592-AA.
T14 chain: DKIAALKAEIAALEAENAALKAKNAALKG
As to conditions: mean of both orientations.

Another test deals with T15, 4H2124-AA.
T15 chain: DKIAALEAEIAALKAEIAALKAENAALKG
As to conditions: mean of both orientations.

For a further test, the target named is T16, 4H3001-AA.
T16 chain: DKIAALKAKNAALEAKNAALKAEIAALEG
As to conditions: mean of both orientations.

For the next test, the target named is T17, 4H249-AA.
T17 chain: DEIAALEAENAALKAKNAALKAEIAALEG
As to conditions: mean of both orientations.

For another test, the target named is T18, 4H452-AA.
T18 chain: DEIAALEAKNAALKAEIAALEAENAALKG
As to conditions: mean of both orientations.

A further test concerns the target T19, 4H2253-AA.
T19 chain: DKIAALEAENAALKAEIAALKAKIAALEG
Conditions: mean of both orientations.

The target in the next test is GCN2_T.
A further test deals with T20, 4H2330-AA.
T20 chain: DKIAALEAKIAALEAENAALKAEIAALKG
As to conditions: mean of both orientations.

Another test addresses T21, 4H2165-AA.
T21 chain: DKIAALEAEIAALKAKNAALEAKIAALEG
As to conditions: mean of both orientations.

The target in another test is T22, 4H406-AA.
T22 chain: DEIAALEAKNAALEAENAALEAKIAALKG
Conditions: mean of both orientations.

The target of the next test is 4H_GCN4.
4H_GCN4, sequence (chain, as listed by the source): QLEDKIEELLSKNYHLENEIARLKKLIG
For the next test, the target named is T23, 4H_BCR.
T23 chain: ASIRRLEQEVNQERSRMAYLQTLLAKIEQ
As to conditions: mean of both orientations.

The next test has as its target T24, 4H390-AA.
T24 chain: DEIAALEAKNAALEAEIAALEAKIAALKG
As to conditions: mean of both orientations.

The next test concerns the target T25, 4H2512-AA.
T25 chain: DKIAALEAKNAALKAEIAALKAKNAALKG
Conditions: mean of both orientations.

A further test has as its target T26, 4H775-AA.
T26 chain: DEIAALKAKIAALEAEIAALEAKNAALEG

The next test has as its target T27, 4H510-AA.
T27 chain: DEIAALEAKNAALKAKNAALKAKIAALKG
As to conditions: mean of both orientations.

The target in the next test is T28, 4H2985-AA.
T28 chain: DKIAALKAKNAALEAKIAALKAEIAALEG
As to conditions: mean of both orientations.

For a further test, the target named is T29, 4H3409-AA.
T29 chain: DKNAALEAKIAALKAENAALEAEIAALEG
As to conditions: mean of both orientations.

The target of another test is T30, 4H3134-AA.
T30 chain: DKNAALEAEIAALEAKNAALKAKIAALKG
As to conditions: mean of both orientations.

In a further test the target is T31, 4H3625-AA.
T31 chain: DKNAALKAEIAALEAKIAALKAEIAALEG
Conditions: mean of both orientations.

A further test concerns the target T32, 4H233-AA.
T32 chain: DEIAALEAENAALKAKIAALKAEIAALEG
Conditions: mean of both orientations.

The target of a further test is T33, 4H2687-AA.
T33 chain: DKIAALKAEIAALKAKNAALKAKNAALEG
Conditions: mean of both orientations.

The next test addresses T34, 4H2705-AA.
T34 chain: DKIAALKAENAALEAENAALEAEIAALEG
As to conditions: mean of both orientations.

For another test, the target named is T35, 4H3940-AA.
T35 chain: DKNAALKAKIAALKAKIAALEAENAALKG
Conditions: mean of both orientations.

Another test addresses T36, 4H278-AA.
T36 chain: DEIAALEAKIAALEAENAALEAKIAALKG
As to conditions: mean of both orientations.

The target in another test is T37, 4H2873-AA.
T37 chain: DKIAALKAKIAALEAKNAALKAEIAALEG
Conditions: mean of both orientations.

A further test addresses T38, 4H2187-AA.
T38 chain: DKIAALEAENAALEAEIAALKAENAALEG

The next test addresses T39, 4H816-AA.
T39 chain: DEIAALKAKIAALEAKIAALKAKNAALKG
As to conditions: mean of both orientations.

The target in a further test is T40, 4H2646-AA.
T40 chain: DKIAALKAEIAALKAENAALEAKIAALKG
As to conditions: mean of both orientations.

A further test has as its target T41, 4H87-AA.
T41 chain: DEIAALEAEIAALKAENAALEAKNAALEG
Conditions: mean of both orientations.

For the next test, the target named is T42, 4H2758-AA.
T42 chain: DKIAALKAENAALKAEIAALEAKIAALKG
Conditions: mean of both orientations.

In the case of DENAALKAKIAALEAKIAALEAENAALKG [4H1828-AA], the interaction score with 4H3438-AA is -1.01; with 4H2343-AA, -1.69; with 4H1828-AA, 1.34; with 4H347-AA, -0.947; in the test with 4H2466-AA it was -1.4; with 4H1930-AA, -1.5. The interaction score with 4H_APH is -1.13; with 4H2774-AA it was -1.37; in the test with 4H2732-AA it was -1.51; in the test with 4H2931-AA, -2.02; in the test with 4H3015-AA it was -1.83; in the test with 4H56-AA it was -1.03. For the same molecule, the interaction score with 4H3073-AA was -1.08; with 4H2592-AA, -0.581; with 4H2124-AA it was -1.65; with 4H3001-AA, -1.55; in the test with 4H249-AA, -1.5; in the test with 4H452-AA, -1.35. Moreover, the interaction score is -1.32 with 4H2253-AA; -2.49 with GCN2_T; -1.45 with 4H2330-AA; -1.37 in the test with 4H2165-AA; -1.44 with 4H406-AA; -2.2 in the test with 4H_GCN4. Besides, in the test with 4H_BCR, the interaction score is -2.28.
Take DKIAALEAENAALEAEIAALKAENAALEG [4H2187-AA]: the interaction score in the test with 4H390-AA is 0.639; with 4H2512-AA, 2.24; with 4H775-AA, -1.71; with 4H510-AA it was 0.192; with 4H2985-AA, -0.684; with 4H3409-AA it was -1.46. The interaction score with 4H3134-AA was 1.47; with 4H3625-AA it was -1.12; with 4H233-AA, -0.428; in the test with 4H2687-AA it was -0.754; with 4H2705-AA, -1.68; in the test with 4H3940-AA it was -1.38. For the same molecule, the interaction score was -0.772 in the test with 4H278-AA; 0.406 in the test with 4H2873-AA; -0.477 with 4H2187-AA; -0.683 with 4H816-AA; -1.38 in the test with 4H2646-AA; -2.2 in the test with 4H87-AA. For the same molecule, the interaction score in the test with 4H2758-AA amounted to 0.853.
